Test results as given in paper PMC8392593.

Legend:
[1] = target: UBE2L3 (Homo sapiens) (UniProt P68036); assay: SPR; settings: cited from earlier work
[2] = target: MuRF1 in fusion with the binding domain of GAL4 (pBridge, MCS I) (rat) (UniProt Q91Z63); assay: two-hybrid; yeast three-hybrid; pBridge::MuRF1/MHCIIa (MuRF1 GAL4 binding-domain fusion with MHCIIa residues 1–255 co-expressed from MCSII), preys in pGADT7; growth on -LTH + Aureobasidin A + 3-AT followed over 21 days
[3] = target: MuRF1 in fusion with the binding domain of GAL4 (pBridge, MCS I) (rat) (UniProt Q91Z63); assay: two-hybrid; Matchmaker Gold yeast two-hybrid; MuRF1 alone as GAL4 binding-domain fusion, preys in pGADT7; growth of diploid clones on -LTH + Aureobasidin A + 3-AT followed over 21 days

Row | percentage of clones grown on selective media [2] [%] | percentage of clones grown on selective media [3] [%] | Substance | Kd [1] [nM]
1 | – | – | MuRF1 (from UniProt Q969Q1) | 50
2 | 80 | 80 | UBE2E1 in pGADT7 (GAL4 activation domain fusion) (from UniProt P52482 1-193) (enzyme) | –
